The labels stand for the following.
B1: HC gp-39 peptide 4 (residues 40-55) (peptide)
peptide: SCFPDALDRFLCTHII
B2: HC gp-39 peptide 1 (residues 22-37) (peptide)
peptide: YKLVCYYTSWSQYREG
B3: HC gp-39 peptide 30 (residues 196-211) (peptide)
peptide: QHLDFISIMTYDFHGA
B4: HC gp-39 peptide 57 (residues 358-373) (peptide)
peptide: DFQGSFCGQDLRFPLT
B5: HC gp-39 peptide 54 (residues 340-355) (peptide)
peptide: YLKDRQLAGAMVWALD
B6: HC gp-39 peptide 37 (residues 238-253) (peptide)
peptide: DYAVGYMLRLGAPASK
B7: HC gp-39 peptide 15 (residues 106-121) (peptide)
peptide: FSKIASNTQSRRTFIK
notes: This is probably a misprint
B8: HC gp-39 peptide 6 (residues 52-67) (peptide)
peptide: THIIYSFANISNDHID
B9: HC gp-39 peptide 5 (residues 46-61) (peptide)
peptide: LDRFLCTHIIYSFANI

By IC50 is commonly meant the concentration at which inhibition is half-maximal. Read a high IC50 as lower potency.

One assay deals with T1, DR4 (DRB1*0401) molecules purified from the homozygous EBV-transformed human B lymphoblastoid cell line … (human, UniProt P01903 26-254).
Test: not given
Settings: not given
Consider B1, for which the IC50 lay in the range of 10 to 100 µM.

For B2, the half-inhibitory concentration (IC50) was below 1 µM.

For the molecule B3, the IC50 was below 1 µM.

In turn, B4 had an IC50 of 1 to 10 µM.

In turn, B5 gave an IC50 below 1 µM.

The molecule B6 came in with an IC50 below 1 µM.

As to B7, the IC50 was below 1 µM.

B8 displayed an IC50 below 1 µM.

As to B9, the IC50 is below 1 µM.

In a further assay the target is T1, DR4 (DRB1*0401) molecules purified from …. Description: competition binding assay on purified DR4(DRB1*0401).
Settings: not given
Take B1: the binding result is on record as “binds”.

Regarding B2, the binding result is given as “binds”.

Take B3: the binding result was “binds”.

Consider B4, for which the binding result is reported as “binds”.

Take B5: the binding result is on record as “binds”.

With B6, the binding result is recorded as “binds”.

With B7, the binding result was “binds”.

For B8, the binding result is reported as “binds”.

For B9, the binding result is listed as “binds”.

The next assay has as its system Balb/c mouse. Description: HC gp-39 administration in Balb/c mice (arthritis). The note with it: administration of HC gp-39. In kind it is in vivo.
With “Human Cartilage glycoprotein 39 [HC gp-39]”, the Arthritic development entry is reported as “delayed and/or suppressed arthritic development” and the Immunological tolerance entry is “resulted in immunological tolerance”.
